Residue numbers refer to the chain shown, from its start. Numbers in names are those of the source. Where “and” joins values, the source holds several entries; their conditions need not be identical. Equal entries are not always repeated.

We go through 37 molecules from patent US20230365662A1.

The labels stand for the following.
B1: KB001 mouse Fab VL S27V (Fab, V domains shown)
VH: EVQLKQSGPGLVAPSQSLSITCTVSGFSLSIYSVHWVRQPPGKGLEWLGMIWGGGSSDYNSALKSRLSISKDNSKSQVFLKMNSLQTDDTAMYYCARNGNFYAMDYWGQGTSVTVSS
VL: QIVLTQSPAIMSASLGERVTMTCTASVSVSSSFLHWYQQKPGSSPQLWIYSTSNLASGVPARFSGSGSGTSYSLTISSMEAEDAATYYCHQYHHSPYIYTFGGGTKLEIK
B2: KB001 mouse Fab VL S30D (Fab, V domains shown)
VH: B1 VH
VL: B1 VL with V27S, S30D
B3: KB001 mouse Fab VL S32Q (Fab, V domains shown)
VH: B1 VH
VL: B1 VL with V27S, S32Q
B4: KB001 mouse Fab VL S28T/S12R (Fab, V domains shown)
VH: B1 VH
VL: B1 VL with S12R, V27S, S28T
B5: KB001 mouse Fab VL S30W (Fab, V domains shown)
VH: B1 VH
VL: B1 VL with V27S, S30W
B6: KB001 mouse Fab VL S30L (Fab, V domains shown)
VH: B1 VH
VL: B1 VL with V27S, S30L
B7: KB001 mouse Fab VL S31D (Fab, V domains shown)
VH: B1 VH
VL: B1 VL with V27S, S31D
B8: KB001 mouse Fab VL S32P (Fab, V domains shown)
VH: B1 VH
VL: B1 VL with V27S, S32P
B9: KB001 mouse Fab VL L34M (Fab, V domains shown)
VH: B1 VH
VL: B1 VL with V27S, L34M
B10: KB001 mouse Fab VL V29I (Fab, V domains shown)
VH: B1 VH
VL: B1 VL with V27S, V29I
B11: KB001 mouse Fab VL F33H (Fab, V domains shown)
VH: B1 VH
VL: B1 VL with V27S, F33H
B12: KB001 mouse Fab VL S27M (Fab, V domains shown)
VH: B1 VH
VL: B1 VL with V27M
B13: KB001 mouse Fab VL S30K (Fab, V domains shown)
VH: B1 VH
VL: B1 VL with V27S, S30K
B14: KB001 mouse Fab VL S28H (Fab, V domains shown)
VH: B1 VH
VL: B1 VL with V27S, S28H
B15: KB001 mouse Fab VL L34I (Fab, V domains shown)
VH: B1 VH
VL: B1 VL with V27S, L34I
B16: KB001 mouse Fab VL S27W (Fab, V domains shown)
VH: B1 VH
VL: B1 VL with V27W
B17: KB001 mouse Fab VL S30H (Fab, V domains shown)
VH: B1 VH
VL: B1 VL with V27S, S30H
B18: KB001 mouse Fab VL S31W (Fab, V domains shown)
VH: B1 VH
VL: B1 VL with V27S, S31W
B19: KB001 mouse Fab VL S28M (Fab, V domains shown)
VH: B1 VH
VL: B1 VL with V27S, S28M
B20: KB001 mouse Fab VL S32G (Fab, V domains shown)
VH: B1 VH
VL: B1 VL with V27S, S32G
B21: KB001 mouse Fab VL T52K (Fab, V domains shown)
VH: B1 VH
VL: B1 VL with V27S, T52K
B22: KB001 mouse Fab VL V29L (Fab, V domains shown)
VH: B1 VH
VL: B1 VL with V27S, V29L
B23: KB001 mouse Fab VL S30E (Fab, V domains shown)
VH: B1 VH
VL: B1 VL with V27S, S30E
B24: KB001 mouse Fab VL F33N (Fab, V domains shown)
VH: B1 VH
VL: B1 VL with V27S, F33N
B25: KB001 mouse Fab VL S30I (Fab, V domains shown)
VH: B1 VH
VL: B1 VL with V27S, S30I
B26: KB001 mouse Fab VL L34V (Fab, V domains shown)
VH: B1 VH
VL: B1 VL with V27S, L34V
B27: KB001 mouse Fab VL S30T (Fab, V domains shown)
VH: B1 VH
VL: B1 VL with V27S, S30T
B28: KB001 mouse Fab VL S27K/S68Y (Fab, V domains shown)
VH: B1 VH
VL: B1 VL with V27K, S68Y
B29: KB001 mouse Fab VL S30R (Fab, V domains shown)
VH: B1 VH
VL: B1 VL with V27S, S30R
B30: KB001 mouse Fab VL S28D (Fab, V domains shown)
VH: B1 VH
VL: B1 VL with V27S, S28D
B31: KB001 mouse Fab VL S30M (Fab, V domains shown)
VH: B1 VH
VL: B1 VL with V27S, S30M
B32: KB001 mouse Fab VL S31Q (Fab, V domains shown)
VH: B1 VH
VL: B1 VL with V27S, S31Q
B33: KB001 mouse Fab VL T52R (Fab, V domains shown)
VH: B1 VH
VL: B1 VL with V27S, T52R
B34: KB001 mouse Fab VL S32A (Fab, V domains shown)
VH: B1 VH
VL: B1 VL with V27S, S32A
B35: KB001 mouse Fab VL S32W (Fab, V domains shown)
VH: B1 VH
VL: B1 VL with V27S, S32W
B36: KB001 mouse Fab VL S28N (Fab, V domains shown)
VH: B1 VH
VL: B1 VL with V27S, S28N
B37: KB001 mouse Fab VL S32Y (Fab, V domains shown)
VH: B1 VH
VL: B1 VL with V27S, S32Y

The test addresses HRgpA-6H (Porphyromonas gingivalis) (UniProt P28784). Kind of test: ELISA, FASEBA Fab on coated HRgpA-6H. Background: ELISA stands for enzyme-linked immunosorbent assay.
Chain of UniProt P28784 (P28784 228-991): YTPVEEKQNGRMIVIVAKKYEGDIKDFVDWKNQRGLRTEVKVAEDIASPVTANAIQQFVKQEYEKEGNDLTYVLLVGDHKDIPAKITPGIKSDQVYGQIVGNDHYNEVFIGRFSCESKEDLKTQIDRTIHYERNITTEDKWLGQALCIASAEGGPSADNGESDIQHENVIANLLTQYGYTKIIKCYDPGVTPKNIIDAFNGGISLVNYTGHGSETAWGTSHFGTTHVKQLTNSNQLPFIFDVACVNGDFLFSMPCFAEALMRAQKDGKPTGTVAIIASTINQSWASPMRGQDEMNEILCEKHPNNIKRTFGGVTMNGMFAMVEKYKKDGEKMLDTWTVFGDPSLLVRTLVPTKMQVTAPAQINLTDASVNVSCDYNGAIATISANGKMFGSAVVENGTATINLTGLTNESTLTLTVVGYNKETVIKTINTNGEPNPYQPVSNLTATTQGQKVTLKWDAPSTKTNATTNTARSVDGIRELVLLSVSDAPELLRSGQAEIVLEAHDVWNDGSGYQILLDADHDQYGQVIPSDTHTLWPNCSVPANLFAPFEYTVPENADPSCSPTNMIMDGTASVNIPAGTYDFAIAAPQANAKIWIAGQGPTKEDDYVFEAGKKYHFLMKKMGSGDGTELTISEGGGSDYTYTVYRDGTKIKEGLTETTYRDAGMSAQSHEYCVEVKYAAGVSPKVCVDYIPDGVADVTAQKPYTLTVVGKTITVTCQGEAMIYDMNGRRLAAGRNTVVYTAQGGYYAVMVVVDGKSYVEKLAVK
B1: the OD450nm was 0.645 and 0.646; the Ratio OD(Variant)/OD(WT) is 0.859 and 0.861.
B2: the OD450nm was 0.702 and 0.723; the Ratio OD(Variant)/OD(WT) was 0.814 and 0.839.
Regarding B3, the OD450nm came out at 0.716 and the Ratio OD(Variant)/OD(WT) is 0.847.
B4: the OD450nm was 0.747 and the Ratio OD(Variant)/OD(WT) was found to be 0.995.
The matching figures for B5: 0.823 and 0.955.
The matching figures for B6: 0.813 and 0.943.
As for B7, the OD450nm was found to be 0.762 and the Ratio OD(Variant)/OD(WT) came out at 0.902.
The matching figures for B8: 0.744 and 0.88.
With B9, the OD450nm was 0.736 and 0.741 and 0.714; the Ratio OD(Variant)/OD(WT) is 0.971 and 0.978 and 0.911.
As to B10, the OD450nm worked out at 0.853 and the Ratio OD(Variant)/OD(WT) is 0.99.
As to B11, the OD450nm amounted to 0.736 and the Ratio OD(Variant)/OD(WT) was 0.971.
B12: the OD450nm was found to be 0.709 and the Ratio OD(Variant)/OD(WT) was 0.945.
On to B13, for which the OD450nm was 0.77 and the Ratio OD(Variant)/OD(WT) stood at 0.893.
For B14, the OD450nm came out at 0.719 and the Ratio OD(Variant)/OD(WT) was determined as 0.958.
B15: the OD450nm stood at 0.67 and the Ratio OD(Variant)/OD(WT) was found to be 0.884.
The like results for B16 were, in that order, 0.601 and 0.801.
Take B17: the OD450nm is 0.808 and 0.747; the Ratio OD(Variant)/OD(WT) was 0.937 and 0.867.
For the molecule B18, the OD450nm was 0.808 and the Ratio OD(Variant)/OD(WT) was 0.956.
As for B19, the OD450nm is 0.706 and 0.675; the Ratio OD(Variant)/OD(WT) was 0.941 and 0.899.
Take B20: the OD450nm was determined as 0.759 and the Ratio OD(Variant)/OD(WT) was 0.898.
Regarding B21, the OD450nm stood at 0.681 and the Ratio OD(Variant)/OD(WT) was 0.865.
The matching figures for B22: 0.751 and 0.871.
The like results for B23 were, in that order, 0.813 and 0.943.
B24: the OD450nm is 0.64 and the Ratio OD(Variant)/OD(WT) was found to be 0.844.
The matching figures for B25: 0.86 and 0.998.
Consider B26, for which the OD450nm was 0.641 and 0.634; the Ratio OD(Variant)/OD(WT) was 0.846 and 0.836.
For the molecule B27, the OD450nm is 0.838 and 0.817; the Ratio OD(Variant)/OD(WT) was 0.972 and 0.948.
For B28, the OD450nm amounted to 0.736 and the Ratio OD(Variant)/OD(WT) came out at 0.981.
Turning to B29, the OD450nm is 0.778 and 0.793 and 0.802; the Ratio OD(Variant)/OD(WT) was 0.903 and 0.92 and 0.93.
Turning to B30, the OD450nm is 0.745 and 0.722; the Ratio OD(Variant)/OD(WT) was 0.993 and 0.962.
As for B31, the OD450nm is 0.818 and the Ratio OD(Variant)/OD(WT) was 0.949.
As to B32, the OD450nm is 0.83 and 0.745 and 0.782; the Ratio OD(Variant)/OD(WT) was 0.982 and 0.882 and 0.925.
Consider B33, for which the OD450nm is 0.724 and 0.681 and 0.685; the Ratio OD(Variant)/OD(WT) was 0.919 and 0.865 and 0.87.
In the case of B34, the OD450nm is 0.748 and 0.805; the Ratio OD(Variant)/OD(WT) is 0.885 and 0.953.
Take B35: the OD450nm came to 0.649 and the Ratio OD(Variant)/OD(WT) was determined as 0.856.
With B36, the OD450nm turned out to be 0.743 and the Ratio OD(Variant)/OD(WT) was found to be 0.99.
The matching figures for B37: 0.753 and 0.891.
